The text below walks through data of patent US20240166750A1 (published 2024).

B1: human IgG1 antibody specific for protein 4, S239D/I332E + T256D/T307Q, -Kif (antibody)
chain: ASTKGPSVFPLAPSSKSTSGGTAALGCLVKDYFPEPVTVSWNSGALTSGVHTFPAVLQSSGLYSLSSVVTVPSSSLGTQTYICNVNHKPSNTKVDKKVEPKSCDKTHTCPPCPAPELLGGPDVFLFPPKPKDTLMISRDPEVTCVVVDVSHEDPEVKFNWYVDGVEVHNAKTKPREEQYNSTYRVVSVLQVLHQDWLNGKEYKCKVSNKALPAPEEKTISKAKGQPREPQVYTLPPSRDELTKNQVSLTCLVKGFYPSDIAVEWESNGQPENNYKTTPPVLDSDGSFFLYSKLTVDKSRWQQGNVFSCSVMHEALHNHYTQKSLSLSPGK
B2: human IgG1 antibody specific for protein 4, S239D + T256D/T307Q + R292C/V302C, -Kif (antibody)
chain: ASTKGPSVFPLAPSSKSTSGGTAALGCLVKDYFPEPVTVSWNSGALTSGVHTFPAVLQSSGLYSLSSVVTVPSSSLGTQTYICNVNHKPSNTKVDKKVEPKSCDKTHTCPPCPAPELLGGPDVFLFPPKPKDTLMISRDPEVTCVVVDVSHEDPEVKFNWYVDGVEVHNAKTKPCEEQYNSTYRCVSVLQVLHQDWLNGKEYKCKVSNKALPAPIEKTISKAKGQPREPQVYTLPPSRDELTKNQVSLTCLVKGFYPSDIAVEWESNGQPENNYKTTPPVLDSDGSFFLYSKLTVDKSRWQQGNVFSCSVMHEALHNHYTQKSLSLSPGK
B3: human IgG1 antibody specific for protein 4, T256D/T307Q + R292C/V302C, -Kif (antibody)
chain: ASTKGPSVFPLAPSSKSTSGGTAALGCLVKDYFPEPVTVSWNSGALTSGVHTFPAVLQSSGLYSLSSVVTVPSSSLGTQTYICNVNHKPSNTKVDKKVEPKSCDKTHTCPPCPAPELLGGPSVFLFPPKPKDTLMISRDPEVTCVVVDVSHEDPEVKFNWYVDGVEVHNAKTKPCEEQYNSTYRCVSVLQVLHQDWLNGKEYKCKVSNKALPAPIEKTISKAKGQPREPQVYTLPPSRDELTKNQVSLTCLVKGFYPSDIAVEWESNGQPENNYKTTPPVLDSDGSFFLYSKLTVDKSRWQQGNVFSCSVMHEALHNHYTQKSLSLSPGK

Sequence of Recombinant human FcγRIIIa-V158 (P08637 17-208 F176V): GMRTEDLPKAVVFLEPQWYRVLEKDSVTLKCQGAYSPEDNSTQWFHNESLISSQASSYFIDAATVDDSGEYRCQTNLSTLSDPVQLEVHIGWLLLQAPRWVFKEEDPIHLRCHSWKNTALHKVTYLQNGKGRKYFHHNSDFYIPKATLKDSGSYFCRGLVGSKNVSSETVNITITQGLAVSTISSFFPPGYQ

The assay concerns the target Recombinant human FcγRIIIa-V158 (human, UniProt P08637 17-208). Nature of the assay: SPR; -kif. A general note: Surface plasmon resonance follows binding to a sensor surface in real time, without labels.
By Kd is commonly meant the free concentration of one partner at which half of the binding sites on the other are occupied at equilibrium, for simple one-to-one binding. With B1, the Kd came to 12.3 nM. Regarding B2, the Kd turned out to be 87.5 nM. Turning to B3, the Kd turned out to be 410 nM.
